Results reported in patent US20200347143A1 (GLENMARK PHARMACEUTICALS S A, published 2020).
Positions count from the first letter of the chain named. Names may count otherwise. One block for each binder: values may come before it.

Assays:
[1] = target: T1, human OX40 on cells (human, UniProt P43489 29-277); assay: cell-based or functional assay
T1 sequence (looked up): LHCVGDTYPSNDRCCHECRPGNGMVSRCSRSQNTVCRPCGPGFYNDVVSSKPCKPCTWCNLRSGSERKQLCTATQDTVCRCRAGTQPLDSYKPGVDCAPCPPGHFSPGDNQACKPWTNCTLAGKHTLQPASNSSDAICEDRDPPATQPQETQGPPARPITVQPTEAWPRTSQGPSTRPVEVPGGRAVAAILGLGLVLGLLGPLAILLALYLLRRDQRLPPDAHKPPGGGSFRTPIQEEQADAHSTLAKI

[2] = target: T1, human OX40 on cells; assay: cell-based or functional assay; remark: listed apart in the source
[3] = target: T1, human OX40 on cells; assay: cell-based or functional assay; remark: listed apart in the source
[4] = target: T1, human OX40 on cells; assay: flow cytometry on HPB-ALL cells, 10 µg/ml antibody
Procedure: HPB-ALL cells (DSMZ, Braunschweig, Germany, Cat. No: ACC483) were used as a human OX40 positive cell line for FACS staining. HPB-ALL were maintained in RPMI 1640 supplemented with 10% FCS and 100 U/ml Penicillin and 100 μg/ml streptomycin. 4×10e5 HPB-ALL cells in FACS buffer (PBS supplemented with 1% BSA and 0.1% sodium azide) were incubated for 45 min on ice with the anti-OX40 antibody of interest kept at a concentration of 10 μg/ml An irrelevant human IgG1 was used as an isotype control; the cells were incubated with a 1/200 dilution of anti-Human Fc-PE (EBioscience, Vienna, Austria) for 45 min on ice. Cells were then washed again and resuspended in 200 μl FACS buffer. The relative mean fluorescence of each sample was measured on a FACSCalibur instrument (BD Biosciences, Allschwil, Switzerland).
A first set of 16 humanized antibodies of human gamma one isotype were prepared. These first humanized candidates were assessed for transient expression in HEK293E cells and binding to HB-ALL cell by flow cytometry (Table 7).

[5] = target: T2, recombinant human OX40-his protein (human, UniProt P43489 29-214); assay: SPR, antibody captured on Protein A, OX40-his injected
T2 construct: Secreted via the native signal peptide, which lies within residues 1-214; also called Human OX40R-His; histidine tagged human OX40 receptor extracellular domain
T2 sequence: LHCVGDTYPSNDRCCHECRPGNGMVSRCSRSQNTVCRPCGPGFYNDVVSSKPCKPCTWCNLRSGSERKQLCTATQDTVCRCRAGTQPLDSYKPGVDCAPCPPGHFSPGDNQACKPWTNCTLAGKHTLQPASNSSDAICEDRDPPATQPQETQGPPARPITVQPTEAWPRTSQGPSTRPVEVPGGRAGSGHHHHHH
Procedure: (§1) Measurements were performed on CM5 sensor chips (Biacore 2000, GE Healthcare Europe GmbH, Cat. No: BR-1000-14) individually coupled with Protein A (Sigma, Buchs, Switzerland, Cat. No: P7837) using a commercial amine coupling kit (GE Healthcare Europe GmbH, Cat. No: BR-1000-50). 200-600 RUs of humanized antibody were captured. Dilution series of OX40-his were injected at a flow rate of 10 μl/min in HBS-EP buffer (GE Healthcare Europe GmbH, Cat. No: BR1001-88). After each binding event, the surface was regenerated with 10 μl of glycine buffer pH 1.5. Experimental data were processed using a 1:1 Langmuir model with local Rmax. The dissociation time was about 7 min. Measurements were performed in duplicates or triplicates and included zero-concentration samples for referencing. Both Chit and residual values were used to evaluate the quality of a fit between the experimental data and individual binding models.
Humanized antibody candidates were then assayed for their binding affinity by SPR and Fab thermal stability by DSC.

[6] = target: T2, recombinant human OX40-his protein; assay: SPR (BIAcore 2000), antibody captured on Protein A, OX40-his injected
Procedure: SPR analysis was used to measure the association and dissociation rate constants for the binding kinetics of the anti-OX40 antibodies. The binding kinetics were measured on a BIAcore 2000 (BIAcore-GE Healthcare Europe GmbH, Glattbrugg, Switzerland) at room temperature and analyzed with the BiaEvaluation software (v4.1, GE Healthcare Europe GmbH).
as §1

[7] = target: recombinant CD40 molecule (R&D) (UniProt P25942 21-193); assay: direct ELISA on coated recombinant CD40, detection streptavidin-HRP, absorbance 450 nm [panel CD40]
Procedure: (§2) FIG. 13. A dose-response of various antibodies was incubated on various receptors, members of Tumor Necrosis Factor Receptor family, then detected with Streptavidin coupled with Horseradish Peroxidase enzyme. […] Each data point is the mean of duplicate values except for control curves that were performed in simplicate.
(§3) The experiment was conducted following the same protocol than previously described. […] These molecules were all coated at 2 μg/ml in PBS overnight at 4° C.

[8] = target: T3, recombinant DR6 molecule (R&D) (UniProt O75509 42-349, limits assumed); assay: direct ELISA on coated recombinant DR6, detection streptavidin-HRP, absorbance 450 nm [panel DR6]
T3 sequence (looked up): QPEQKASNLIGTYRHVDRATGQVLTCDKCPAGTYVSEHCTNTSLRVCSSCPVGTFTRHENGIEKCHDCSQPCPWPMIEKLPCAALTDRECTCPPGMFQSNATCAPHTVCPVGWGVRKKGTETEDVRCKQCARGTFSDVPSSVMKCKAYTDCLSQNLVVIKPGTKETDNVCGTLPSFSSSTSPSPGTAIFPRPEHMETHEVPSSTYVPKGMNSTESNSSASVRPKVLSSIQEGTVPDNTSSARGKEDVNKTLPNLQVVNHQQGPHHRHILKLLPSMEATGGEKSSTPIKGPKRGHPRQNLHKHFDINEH
Procedure: as §2, §3

[9] = target: T4, recombinant GITR molecule (R&D) (UniProt Q9Y5U5 26-161); assay: direct ELISA on coated recombinant GITR, detection streptavidin-HRP, absorbance 450 nm [panel GITR]
T4 sequence (looked up): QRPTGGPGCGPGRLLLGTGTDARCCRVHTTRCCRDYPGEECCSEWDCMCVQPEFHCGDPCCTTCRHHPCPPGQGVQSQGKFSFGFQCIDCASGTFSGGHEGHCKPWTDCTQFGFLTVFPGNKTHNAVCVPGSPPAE
Procedure: as §2, §3

[10] = target: T5, recombinant DR3 molecule (R&D) (UniProt Q93038 25-199, limits assumed); assay: direct ELISA on coated recombinant DR3, detection streptavidin-HRP, absorbance 450 nm [panel DR3]
T5 sequence (looked up): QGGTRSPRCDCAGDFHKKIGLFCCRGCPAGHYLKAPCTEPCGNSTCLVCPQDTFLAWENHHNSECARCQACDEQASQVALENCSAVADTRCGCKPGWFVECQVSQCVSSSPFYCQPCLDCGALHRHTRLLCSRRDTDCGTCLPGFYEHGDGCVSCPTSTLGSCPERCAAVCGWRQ
Procedure: as §2, §3

[11] = target: rat OX40-Fc (rat); assay: ELISA on coated rat OX40-Fc
Procedure: (§4) These constructs were expressed in HEK293-EBNA1 cells and purified using protein A. Then, human and rat OX40-Fc were tested in ELISA and Biacore to determine antibody cross-reactivity. For the ELISA, 96 well-microtiter plates (Costar USA, distributor VWR AG, Nyon, Switzerland) were coated with 100 μl of recombinant human or rat OX40-Fc at 2 μg/ml in PBS. Plates were incubated overnight at 4° C. and were then blocked with PBS 2% BSA (Bovine Serum Albumine, PAA Laboratories, Pasching, Austria) at room temperature (RT) for one hour. The blocking solution was removed and the purified antibodies were added at 10 μg/ml in PBS 2% BSA. The plates were incubated at RT for 1 hour, then washed 5 times with PBS 0.01% Tween-20 (Sigma-Aldrich Chemie GmbH, Buchs, Switzerland). […] Plates were incubated for 1 hour at RT, washed 5 times with PBS 0.01% Tween-20 and the TMB substrate (Bio-rad Laboratories AG, Reinach, Switzerland) was added to the plates and the reaction stopped after 5 minutes by adding H₂SO₄. Absorbance was then read at 450 nm by a microplate reader (Biotek, USA; distributor: WITTEC AG, Littau, Switzerland). Biacore experiments were specifically conducted with Hexa-hzG3V9 and Hexa-hz1D10v1 which are dAb-Fc fusion proteins. […] Binding of human and cyno OX40-Fc molecules was determined by successively injecting these proteins on the 4 flow-paths (flow-path 1 and 3 being used as references) at a concentration of 200 nM and a flow rate of 30 uL/min for 240 seconds. Regeneration between the two injections was done using 3M MgCl2, at 30 uL/min for 60 seconds. Using these two approaches, human/rat OX40 binding was assessed (table 16).

[12] = target: T2, recombinant human OX40-his protein; assay: SPR, antibody captured on Protein A, OX40-his injected; remark: listed apart in the source
Procedure: as §1
Finally, Surface Plasmon Resonance analyses were applied to control antibody variant affinities as described earlier.

[13] = target: T6, human OX40-Fc (human); assay: ELISA on coated human OX40-Fc, antibody 10 µg/ml
T6 construct: also called recombinant human OX40-Fc; human OX40 (HHHH)
Procedure: as §4

[14] = target: T1, human OX40 on cells; assay: flow cytometry on JURKAT-NFkB-OX40 cells, detection anti-human Fc PE, geometric mean of fluorescence intensity

Chain of rat OX40-Fc (rat) (chain, as listed by the source limits assumed): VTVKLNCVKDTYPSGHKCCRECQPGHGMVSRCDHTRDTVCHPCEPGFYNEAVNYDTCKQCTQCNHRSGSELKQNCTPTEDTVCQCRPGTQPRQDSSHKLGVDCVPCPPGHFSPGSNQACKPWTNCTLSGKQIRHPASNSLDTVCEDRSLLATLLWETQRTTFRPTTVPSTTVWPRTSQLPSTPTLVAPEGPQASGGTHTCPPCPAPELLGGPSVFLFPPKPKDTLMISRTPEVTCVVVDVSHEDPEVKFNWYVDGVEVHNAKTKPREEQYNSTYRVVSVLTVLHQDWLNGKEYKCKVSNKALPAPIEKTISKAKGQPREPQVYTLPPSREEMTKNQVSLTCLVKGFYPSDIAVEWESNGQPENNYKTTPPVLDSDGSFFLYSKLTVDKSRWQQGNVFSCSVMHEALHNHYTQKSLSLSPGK
Chain of recombinant CD40 molecule (R&D) (P25942 21-193 limits assumed): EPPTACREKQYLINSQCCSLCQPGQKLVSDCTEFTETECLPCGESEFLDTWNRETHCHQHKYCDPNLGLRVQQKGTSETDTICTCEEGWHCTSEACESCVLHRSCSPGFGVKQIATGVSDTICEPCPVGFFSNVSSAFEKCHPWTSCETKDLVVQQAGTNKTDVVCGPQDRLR

B2: Chimeric 7H11 IgG1 (antibody, V domains shown)
VH: QVQLQQSGPELVKPGASVKMSCKASGYTFTRYYIHWMNQRPGQGLEWIGWIYPGDGSTKYNEKFKGKTTLTADTSSSTAYMLLSSLTSEDSAIYFCAREYGNYDYWGQGTTVTVSS
VL: DIVMTQSPSSLSVSAGEKVTMSCKSSQSLLNSGNQKNYLAWYQQKPGQPPKLLIYGASTRESGVPDRFTGSGSGTDFTLTISSVQAEDLAVYYCQNDHSYPYTFGGGTKLEIK
notes: Mouse variable domains on human IgG1 heavy constant domains and human kappa constant domain; also called 7H11 (chimeric); chimeric 7H11 antibody
- MFI [4]: 132
- Kd [5]: 50 nM
- Kd [6]: 50 nM
- koff [6]: 0.00066 s⁻¹
- kon [6]: 11600 M⁻¹ s⁻¹

B6: Humanized 7H11-VH2 N58K-D54T (antibody, human IgG1, kappa, V domains shown)
VH: QVQLVQSGAEVKKPGASVKVSCKASGYTFTRYYMHWVRQAPGQGLEWMGWIYPGTGSTKYAQKFQGRVTMTRDTSISTAYMELSRLRSDDTAVYYCAREYGNYDYWGQGTLVTVSS
VL: DIVMTQSPDSLAVSLGERATINCKSSQSLLNSGNQKNYLAWYQQKPGQPPKLLIYGASTRESGVPDRFSGSGSGTDFTLTISSLQAEDVAVYYCQNDHSYPYTFGQGTKLEIKR
notes: human IgG1, kappa; also called 7H11 VH D54T
- Kd [12]: 32 nM

B7: 2H6 IgG1 (antibody)
heavy: not shown
light: DIQLTQSPSSLSASVGDRVTITCRASESVDNYGISFMNWFQQKPGKAPKLLIYAASNQKSGVPSRFSGSGSGTDFTLTISSLQPEDFATYFCQQSKEVPLTFGQGTKVEIKRTVAAPSVFIFPPSDEQLKSGTASVVCLLNNFYPREAKVQWKVDNALQSGNSQESVTEQDSKDSTYSLSSTLTLSKADYEKHKVYACEVTHQGLSSPVTKSFNRGEC
- binding result [13]: binds
- binding result [7]: no binding (tested: 10 µg/ml)
- binding result [8]: no binding (tested: 10 µg/ml)
- binding result [9]: no binding (tested: 10 µg/ml)
- binding result [10]: no binding (tested: 10 µg/ml)
- binding result [11]: no binding (tested: 10 µg/ml)
- EC50 (read off the curve) [14]: ~0.2 µg/mL

Now from value to binder:

- Mean (fold increase proliferation vs control), MLR assay [1]: 1.54 fold
- donors reaching a 1.2 fold induction of CD4+CD25+ cells compared to SEB only [2]: 67%
- % donor responder (>2), SEB assay, IL-2 release [3]: 83%
- Mean, normalized IL-2 release, SEB assay [3]: 4.26
B1: recombinant human OX40L-Fc protein (Fc fusion, not shown: a dimerising Fc or GST; small tags and cut ends)
chain: QVSHRYPRIQSIKVQFTEYKKEKGFILTSQKEDEIMKVQNNSVIINCDGFYLISLKGYFSQEVNISLHYQKDEEPLFQLKKVRSVNSLMVASLTYKDKVYLNVTTDNTSLDDFHVNGGELILIHQNPGEFCVL

- binding result [7]: no binding (tested: 10 µg/ml)
- binding result [8]: no binding (tested: 10 µg/ml)
- binding result [9]: no binding (tested: 10 µg/ml)
- binding result [10]: no binding (tested: 10 µg/ml)
- binding result [11]: no binding (tested: 10 µg/ml)
B3: 7H11 IgG1 (Humanized 7H11-VH2 N58K-D54E with 7H11 VL1) (antibody, V domains shown)
VH: B6 VH with T55E
VL: B6 VL
notes: also called 7H11_v8 IgG1

- Kd [5]: 2.87 nM
B4: Humanized 7H11 VH2 V37M/VL1 (antibody, human IgG1, kappa, V domains shown)
VH: B6 VH with V37M, T55D, K59N
VL: B6 VL
notes: human IgG1, kappa

- Kd [12]: 49 nM
B5: Humanized 7H11-VH2 N58K-D54S (antibody, human IgG1, kappa, V domains shown)
VH: B6 VH with T55S
VL: B6 VL
notes: human IgG1, kappa; also called 7H11 VH D54S
